Data taken from US20080118529A1 (published 2008).
Where “and” joins values, the source holds several entries; their conditions need not be identical. Equal entries are not always repeated.

T1: human factor XII from plasma (Calbiochem, #233490) (human, UniProt P00748 20-615)
T1 construct: also called FXII
T1 sequence (looked up): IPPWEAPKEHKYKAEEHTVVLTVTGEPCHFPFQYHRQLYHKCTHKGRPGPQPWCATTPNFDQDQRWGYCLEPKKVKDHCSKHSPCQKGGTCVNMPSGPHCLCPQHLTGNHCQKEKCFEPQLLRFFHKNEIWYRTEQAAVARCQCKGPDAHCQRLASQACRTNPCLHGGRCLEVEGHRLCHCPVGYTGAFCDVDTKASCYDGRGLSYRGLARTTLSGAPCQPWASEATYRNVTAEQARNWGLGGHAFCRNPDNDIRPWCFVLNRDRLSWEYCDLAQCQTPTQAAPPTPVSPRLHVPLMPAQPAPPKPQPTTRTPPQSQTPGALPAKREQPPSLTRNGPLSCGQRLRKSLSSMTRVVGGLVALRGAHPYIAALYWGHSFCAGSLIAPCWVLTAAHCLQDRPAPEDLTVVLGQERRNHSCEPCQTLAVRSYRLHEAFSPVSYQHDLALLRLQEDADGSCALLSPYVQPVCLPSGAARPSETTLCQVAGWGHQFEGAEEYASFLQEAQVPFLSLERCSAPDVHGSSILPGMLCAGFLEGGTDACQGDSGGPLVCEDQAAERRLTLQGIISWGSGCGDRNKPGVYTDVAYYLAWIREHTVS

B1: Tissue-type plasminogen activator (tPA, Actilyse, Boehringer-Ingelheim) (enzyme, human, UniProt P00750 36-562, looked up)
chain: SYQVICRDEKTQMIYQQHQSWLRPVLRSNRVEYCWCNSGRAQCHSVPVKSCSEPRCFNGGTCQQALYFSDFVCQCPEGFAGKCCEIDTRATCYEDQGISYRGTWSTAESGAECTNWNSSALAQKPYSGRRPDAIRLGLGNHNYCRNPDRDSKPWCYVFKAGKYSSEFCSTPACSEGNSDCYFGNGSAYRGTHSLTESGASCLPWNSMILIGKVYTAQNPSAQALGLGKHNYCRNPDGDAKPWCHVLKNRRLTWEYCDVPSCSTCGLRQYSQPQFRIKGGLFADIASHPWQAAIFAKHRRSPGERFLCGGILISSCWILSAAHCFQERFPPHHLTVILGRTYRVVPGEEEQKFEVEKYIVHKEFDDDTYDNDIALLQLKSDSSRCAQESSVVRTVCLPPADLQLPDWTECELSGYGKHEALSPFYSERLKEAHVRLYPSSRCTSQHLLNRTVTDNMLCAGDTRSGGPQANLHDACQGDSGGPLVCLNDGRMTLVGIISWGLGCGQKDVPGVYTKVTNYLDWIRDNMRP
notes: also called full-length tPA; recombinant human tPA

Legend:
[1] = target: T1, human factor XII from plasma …; assay: ELISA; factor XII incubated with DXS500k or buffer immobilized, overlaid with tPA in 10 mM εACA
[2] = target: T2, albumin (ICN, 160069) (bovine, UniProt P02769 25-607); assay: ELISA; protein incubated with DXS500k or buffer immobilized, overlaid with tPA in 10 mM εACA
T2 construct: also called bovine serum albumin (ICN, #160069, fraction V)

[3] = target: B1; assay: ELISA: tPA coated, concentration series of β2GPI, detection with monoclonal antibody 2B2
[4] = target: T1, human factor XII from plasma …; assay: ELISA: factor XII coated, concentration series of β2GPI, detection with monoclonal antibody 2B2

T2 sequence (P02769 25-607 limits assumed): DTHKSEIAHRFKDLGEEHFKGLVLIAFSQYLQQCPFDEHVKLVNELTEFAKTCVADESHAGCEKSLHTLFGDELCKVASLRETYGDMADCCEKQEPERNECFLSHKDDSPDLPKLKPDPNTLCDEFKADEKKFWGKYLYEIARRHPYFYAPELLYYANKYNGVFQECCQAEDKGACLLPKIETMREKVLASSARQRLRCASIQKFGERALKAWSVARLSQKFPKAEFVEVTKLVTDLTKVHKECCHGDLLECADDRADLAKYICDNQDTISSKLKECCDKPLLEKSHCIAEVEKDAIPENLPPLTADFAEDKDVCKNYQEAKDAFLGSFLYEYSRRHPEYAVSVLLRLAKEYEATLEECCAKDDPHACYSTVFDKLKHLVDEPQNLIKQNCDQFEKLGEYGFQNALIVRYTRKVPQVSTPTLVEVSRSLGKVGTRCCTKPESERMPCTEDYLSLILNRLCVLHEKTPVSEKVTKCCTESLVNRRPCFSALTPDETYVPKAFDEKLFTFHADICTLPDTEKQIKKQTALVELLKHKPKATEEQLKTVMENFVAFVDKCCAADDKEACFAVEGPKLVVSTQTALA

| Binder | binding result [1] | factor of increase in tPA binding (protein exposed to DXS500k against protein in buffer only) [2] [fold] | Kd [3] | Kd [4] |
| --- | --- | --- | --- | --- |
| B1 | binds | 1.3 | – | – |
| recombinant human β2-glycoprotein I (made in insect cells) (other, UniProt P02749 20-345, looked up, also called recombinant β2GPI; rec. β2GPI) GRTCPKPDDLPFSTVVPLKTFYEPGEEITYSCKPGYVSRGGMRKFICPLTGLWPINTLKCTPRVCPFAGILENGAVRYTTFEYPNTISFSCNTGFYLNGADSAKCTEEGKWSPELPVCAPIICPPPSIPTFATLRVYKPSAGNNSLYRDTAVFECLPQHAMFGNDTITCTTHGNWTKLPECREVKCPFPSRPDNGFVNYPAKPTLYYKDKATFGCHDGYSLDGPEEIECTKLGNWSAMPSCKASCKVPVKKATVVYQGERVKIQEKFKNGMLHGDKVSFFCKNKEKKCSYTEDAQCIDGTIEVPKCFKEHSSLAFWKTDASDVKPC | – | – | 2.3 µg/mL and 51 nM | 0.9 µg/mL and 20 nM |
